Data taken from patent publication US20260274991A1.

Target: Native Trypsin (abcam)
Experiment: cell-based or functional assay

IC50 Against 0.25 nM Native Trypsin: 4.8 nM
B1: Trypsin 1/Trypsin 2-Dual-L4-Ab5 (antibody, part only; not given: light chain variable domain, V domains shown, part only)
VH: QVQLVQSGAEVKKPGASVKVSCKASGYTFTDYAISWVRQAPGQGLEWMGWISASTADTNYAQKLQGRVTMTTDTSTSTAYMELRSLRSDDTAVYYCARQDEVVGKMTYYIGTDVWGQGTTVTVSS
